How the values were obtained:
[1] = Biodistribution of radiometal-DOTA-BBN conjugates in CF1 normal mice; conditions: CF-1, mouse, in vivo, iv, total radioactivity; for tissue uptake dose at 1 h / dose excreted at 1 h: Avg % ID; for dose excreted at 1 h: Urine; for tissue uptake at 1 h: Avg % ID/gm
in vivo = conditions: SCID, mouse, iv, 4 uCi, total radioactivity
Experimental: In vivo pharmacokinetic studies in human tumor bearing SCID mice. […] The xenograft models were produced by bilateral flank inoculation of 5×10^6 cells (PC-3 or MDA-MB-231 cells) per site. Four to six weeks post inoculation, palpable tumors were observed. At this point, the mice were injected with 4 μCi of the complex in 100/μL of isotonic saline via the tail vein. The mice were euthanized and tissues and organs were excised from the animals at selected times post-injection (p.i.), including 15 minutes, 30 minutes, 1 hour, 4 hours, 24 hours, 48 hours, and 72 hours p.i. Subsequently, the tissues and organs were weighed and counted in a NaI well counter and the percent injected dose (% ID) and % ID/g of each organ or tissue calculated.

[2] = Blood, 1 hour, Blocking (excess BBN)
[3] = Kidney, 1 hour, Blocking (excess BBN)
[4] = L. Intestine, 1 hour, Blocking (excess BBN)
[5] = Liver, 1 hour, Blocking (excess BBN)
[6] = Lung, 1 hour, Blocking (excess BBN)
[7] = Muscle, 1 hour, Blocking (excess BBN)
[8] = Pancreas, 1 hour post-injection
[9] = Pancreas, 1 hour, Blocking (excess BBN)
[10] = S. Intestine, 1 hour, Blocking (excess BBN)
[11] = Spleen, 1 hour, Blocking (excess BBN)
[12] = Stomach, 1 hour, Blocking (excess BBN)

For `CSCC[C@H](NC(=O)[C@H](CC(C)C)NC(=O)[C@H](Cc1cnc[nH]1)NC(=O)CNC(=O)[C@@H](NC(=O)[C@H](C)NC(=O)[C@H](Cc1c[nH]c2ccccc12)NC(=O)[C@H](CCC(N)=O)NC(=O)CCCCCCCNC(=O)CN1CCN(CC(=O)O)CCN(CC(=O)O)CCN(CC(=O)O)CC1)C(C)C)C(N)=O` [111In-DOTA-8-Aoc-BBN[7-14]NH2, metal not drawn], the tissue uptake dose at 1 h [1, 2] was 0.98 ± 0.23 %ID, the tissue uptake dose at 1 h ([1]; Carcass, 1 hour, Blocking (excess BBN)) was 7.42 ± 1.35 %ID and the tissue uptake dose at 1 h ([1]; Heart, 1 hour post-injection) was 0.01 %ID. The tissue uptake dose at 1 h ([1]; Kidney, 1 hour post-injection) was 1.04 ± 0.12 %ID, the tissue uptake dose at 1 h [1, 3] was 0.92 ± 0.13 %ID and the tissue uptake dose at 1 h ([1]; L. Intestine, 1 hour post-injection) was 3.02 ± 0.33 %ID. It also gave a tissue uptake dose at 1 h [1, 4] of 0.15 ± 0.05 %ID, a tissue uptake dose at 1 h [1, 5] of 0.87 ± 0.1 %ID and a tissue uptake dose at 1 h [1, 6] of 0.17 ± 0.05 %ID. It also gave a tissue uptake dose at 1 h ([1]; Muscle, 1 hour post-injection) of 0.02 ± 0.01 %ID, a tissue uptake dose at 1 h [1, 7] of 0.02 ± 0.01 %ID and a tissue uptake dose at 1 h [1, 8] of 10.8 ± 0.78 %ID. It also gave a tissue uptake dose at 1 h [1, 9] of 0.19 ± 0.03 %ID, a tissue uptake dose at 1 h ([1]; S. Intestine, 1 hour post-injection) of 6.58 ± 1.1 %ID and a tissue uptake dose at 1 h [1, 10] of 1.65 ± 0.19 %ID. It also gave a tissue uptake dose at 1 h ([1]; Spleen, 1 hour post-injection) of 0.17 ± 0.04 %ID, a tissue uptake dose at 1 h [1, 11] of 0.02 ± 0.03 %ID and a tissue uptake dose at 1 h ([1]; Stomach, 1 hour post-injection) of 0.5 ± 0.06 %ID. It also gave a tissue uptake dose at 1 h [1, 12] of 0.16 ± 0.12 %ID, a dose excreted at 1 h ([1]; 1 hour post-injection) of 71.6 ± 1.82% and a dose excreted at 1 h ([1]; 1 hour, Blocking (excess BBN)) of 88.2 ± 1.79%. The tissue uptake at 1 h [1, 2] was 0.49 ± 0.15 %ID/g, the tissue uptake at 1 h ([1]; Heart, 1 hour, Blocking (excess BBN)) was 0.16 ± 0.06 %ID/g and the tissue uptake at 1 h [1, 3] was 2.19 ± 0.47 %ID/g. The tissue uptake at 1 h [1, 4] was 0.16 ± 0.06 %ID/g, the tissue uptake at 1 h [1, 5] was 0.54 ± 0.13 %ID/g and the tissue uptake at 1 h [1, 6] was 0.74 ± 0.17 %ID/g. The tissue uptake at 1 h ([1]; Muscle, 1 hour post-injection) was 0.12 ± 0.05 %ID/g, the tissue uptake at 1 h [1, 7] was 0.11 ± 0.07 %ID/g and the tissue uptake at 1 h [1, 8] was 27 ± 3.97 %ID/g. The tissue uptake at 1 h [1, 9] was 0.43 ± 0.1 %ID/g, the tissue uptake at 1 h [1, 10] was 0.95 ± 0.18 %ID/g and the tissue uptake at 1 h [1, 11] was 0.15 ± 0.16 %ID/g. The tissue uptake at 1 h [1, 12] was 0.32 ± 0.34 %ID/g, the tissue uptake at 1 h (in vivo; blood) was 0.35 ± 0.08 %ID/g and the tissue uptake at 4 h (in vivo; blood) was 0.08 ± 0.1 %ID/g. For the same compound, the tissue uptake at 24 h (in vivo; blood) was 0.02 ± 0.03 %ID/g, the tissue uptake at 1 h (in vivo; heart) was 0.15 ± 0.11 %ID/g and the tissue uptake at 24 h (in vivo; heart) was 0.08 ± 0.06 %ID/g. The tissue uptake at 1 h (in vivo; kidney) was 3.29 ± 0.56 %ID/g, the tissue uptake at 4 h (in vivo; kidney) was 1.76 ± 0.15 %ID/g and the tissue uptake at 24 h (in vivo; kidney) was 0.98 ± 0.28 %ID/g. It also gave a tissue uptake at 1 h (in vivo; large intestine) of 5.14 ± 0.42 %ID/g, a tissue uptake at 4 h (in vivo; large intestine) of 5.58 ± 1.26 %ID/g and a tissue uptake at 24 h (in vivo; large intestine) of 2.76 ± 0.49 %ID/g. The tissue uptake at 1 h (in vivo; liver) was 0.31 ± 0.04 %ID/g, the tissue uptake at 4 h (in vivo; liver) was 0.15 ± 0.09 %ID/g and the tissue uptake at 24 h (in vivo; liver) was 0.07 ± 0.02 %ID/g. For the same compound, the tissue uptake at 1 h (in vivo; lung) was 0.31 ± 0.09 %ID/g, the tissue uptake at 4 h (in vivo; lung) was 0.06 ± 0.06 %ID/g and the tissue uptake at 24 h (in vivo; lung) was 0.05 ± 0.05 %ID/g. For the same compound, the tissue uptake at 1 h (in vivo; muscle) was 0.08 ± 0.05 %ID/g, the tissue uptake at 4 h (in vivo; muscle) was 0.06 ± 0.13 %ID/g and the tissue uptake at 1 h (in vivo; pancreas) was 23.4 ± 4.99 %ID/g. For the same compound, the tissue uptake at 4 h (in vivo; pancreas) was 17.9 ± 5 %ID/g, the tissue uptake at 24 h (in vivo; pancreas) was 5.06 ± 0.77 %ID/g and the tissue uptake at 1 h (in vivo; small intestine) was 5.15 ± 0.19 %ID/g. It also gave a tissue uptake at 24 h (in vivo; small intestine) of 0.9 ± 0.14 %ID/g, a tissue uptake at 1 h (in vivo; spleen) of 0.57 ± 0.1 %ID/g and a tissue uptake at 4 h (in vivo; spleen) of 0.48 ± 0.25 %ID/g. For the same compound, the tissue uptake at 24 h (in vivo; spleen) was 0.21 ± 0.07 %ID/g, the tissue uptake at 4 h (in vivo; stomach) was 0.27 ± 0.08 %ID/g and the tissue uptake at 24 h (in vivo; stomach) was 0.33 ± 0.1 %ID/g. It also gave a tissue uptake at 1 h (in vivo; tumor (Tumor 1)) of 0.91 ± 0.16 %ID/g, a tissue uptake at 4 h (in vivo; tumor (Tumor 1)) of 0.36 ± 0.13 %ID/g and a tissue uptake at 24 h (in vivo; tumor (Tumor 1)) of 0.22 ± 0.07 %ID/g. For the same compound, the tissue uptake at 1 h (in vivo; tumor (Tumor 2)) was 0.74 ± 0.27 %ID/g, the tissue uptake at 4 h (in vivo; tumor (Tumor 2)) was 0.4 ± 0.23 %ID/g and the tissue uptake at 24 h (in vivo; tumor (Tumor 2)) was 0.24 ± 0.15 %ID/g. For the same compound, the tissue uptake at 1 h (in vivo; tumor) was 0.83 ± 0.23 %ID/g, the dose excreted at 1 h (in vivo; urine) was 72.1 ± 3.55% and the dose excreted at 4 h (in vivo; urine) was 84.3 ± 2.09%. For the same compound, the dose excreted at 24 h (in vivo; urine) was 83.8 ± 1.41%.
